Source: the nanobody polyreactivity screen of Harvey et al. (2022)

Test: yeast display, Sf9 membrane polyspecificity reagent, FACS + sequencing; frameworks hold sequencing errors
Procedure, shortened: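 Nanobodies from a synthetic yeast display library (Saccharomyces cerevisiae BJ5465), induced 36–48 hours with galactose, were stained 1 hour at 4 °C with 10% biotinylated, detergent-solubilized Sf9 membrane reagent, enriched on streptavidin microbeads, then FACS-sorted. Anti-HA (expression) and streptavidin (reagent binding) fluorescence set low and high (top ~1%) gates. Polyreactivity labels come from the gate of origin. Genes were colony-PCR amplified, MiSeq 2 × 250 sequenced and filtered by CDR length.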

| Sequence | polyreactivity (PSR sort gate) |
| --- | --- |
| QVQLVESGGGLVQAGGSLRLSCAASGSIFVGNAMGWYIQAPGKERELVAAISRSGGSTYYADSVKGRFTISRDNAKNTVYLQMNSLKPEDTAVYYCAAVRKQGSGFDYWGQGTQVTVSS | high polyreactivity |
| QVQLVESGGGLVQAGGSLRLSCADSGLIFYYYAMGWYRHAPGKERELVAAISYNGGTTYYADSVKGRFTISRDNAKNTVYLQMNSLNPEDTAVYYCAAEQLVSGYDYWGQGTQVTVSS | low polyreactivity |
| QVQLVESGGGLVKAGGSLRLSCAASGRIFYWYALGWYRQAPGKEREFVAVISQGGGSTRYADSVKGRFTISRDNAKNTVYLHMNSLKPEDTAVYYCAASHSRWRQGYGYWGQGTQVTVSS | high polyreactivity |
| QVQLVESGGGLVQAGGSLRLSCAASGSILHLYAMGWYRQAPGKERELVARINSGGTTNYADSVKGRFTISRDNAKNTVYLQMNSLKPEDTAVYYCAARFTPYITSDVGHYDYWGQGTQVTVSS | low polyreactivity |
| HVQLVESGGGLVQAGGSLRLSCAASGSIFGNYVMGWYRQAPGKERELVAAISWSGGTNYADSVKGRFTISRDNAKNTVYLQMKSLKPEDTAVYYCAALSVWSYYTYYYWGQGTQVTVSS | high polyreactivity |
| QVQLVESGGGLVQAGGSLRLSCAASGYIFYDNAMGWYRQAPGKDREFVSTYYADSVKGRFTISRDNAKNTVYLQMNSLKPEDTAVYYCAAVYSHEGYCWGQGTQVTVSS | low polyreactivity |
| QVQLVESGGGLVQAGGSLRLSCAASGGTFGPYAMGWYSQAPGKERELVATIRSSGGRTYYADSVTGRFTISRDNAKNTVYFQMNSLKPEDTAVYYCAADNLRQFGEYDYWGQGTQVTVSS | low polyreactivity |
| QVQLVESGGGLVQAGGSLRLSCAASGITFYLYDMGWYRQAPGIERELVASITSDGSTDYADSVKGRFTISRDNAKNTVYLQMNSLKPEDTAVYYCNARVTYSWYRFGRSGDDSWGHGTQVTVSS | low polyreactivity |
| QVQLVESAGGLVQAGGSLRLSCAASGYTFVNYAMGWYRQAPGKERELVAAISRSGGSTYYADSVKGRFTISRDHAKNTVYLQMNSLKPEDTAVYYCAKVVQGDHPYDYWGQGTQVTVSS | high polyreactivity |
| QVQLVESGGGLVQAGGSLRLSCAASGSTFDSYAMGWYRQAPGKERELVAAITNGGSTYYADSVKGRFTISRDNAKNTVYLQMNSLKPEDTEVYYCATDDYLLDYLYDYWGQGTQVTVSS | low polyreactivity |
| QVQLVESGGGLVQAGGSLRLSCAASGSIFYGYAMGWYRQAPGKERELVAVITDGGGSTYYADSVKGRFTISRDNAKNTVYLQMNSLKPEDTAVYYCAADSWGPYYYSSYSYDYWGQGTQVTVSS | low polyreactivity |
| QVQLVESGGGLVQAGGSLRLSCAASGGIFYAYAMGWYRQAPGKERELVAAISISDGDTYYADSVKGRFTISRDNAKNTVYLQMNSLKPEDTAVYYCAAEQEYDLREYDYWGQGTQVTVSS | high polyreactivity |
| QVQLVESGGGLVQAGGSLRLSCAASGRIFHSYAMGWYRQAPGKERELVAAISSGGNTYYADSVKGRFTISRDNAKNTVYLQMNSLKREDTAVYYCARDWDFLYDGFHSDSYEYWGQGTQVTVSS | low polyreactivity |
| QVQLVESGGGLVQAGGSLRLSCAASGFIFARNTMGWYRQAPGKERELVAAITKSGGSTNYADSVKGRFTISRDNAKNTVYLQMNSLKPEDTAVYYCAARTYTLRGVYFSGYNYWGQGTQVTVSS | low polyreactivity |
| QVQLVESGGGLVQAGGSLRLSCAASGRTFRPYALGGYRPAPGKERELVAVITSGGSTYYADSVKGRFTISRDNAKNTVYLQMNSLKPEDTAVYYCARVYRSYAWSGYDYWGQGTQVTVSS | high polyreactivity |
| QVQLVESGGGLVQAGGSLRLSCAASGSIFRFYAMGWYIQAPGKERELVAAIRFSGGNTYYADSVKGRFTISCDNAKNTVYLQMNSLKPEDTAVYYCAKYRRVKPKRYDYDYWGQGTQVTVSS | high polyreactivity |
| QVQLVESGVGLDQAGGSLRLSCAASGSTFWWNNMVCYRQAPGKERELVAAITTGGGTYYADSVKGRFTISRDNAKNSVYLQMNSLKPEDTAVYYCAATVRSYGWYAYHYSTYGYWGKGTQVTVSS | low polyreactivity |
| QVQLVESGGGLVQAGGSLRLSCAASGSIFLNYAMGWYRQAPGKERELVAAISYRVGRTYYADSVKGRFTISRDNAKNTVYLQMNSLKPEDTAVYYCAADSRSPGHDYWGQGTQVTVSS | high polyreactivity |
| QVQLVESGGGLVQAGGSLRLSCAASGSTLWDYAMGWYRQAPGKERELVAAITQDGGSTYYADSVKGRFTISRDNAKNTVYLQMNSLKPEDTAVYYCAAEYWYDGGGYWGQGTQVTVSS | low polyreactivity |
| QVQLVESGGGLVQAGGSLRLSCAASGSIFDSNAMGWYRQAPGKERELVASITSDGDTYYADSVKGRFTISRDNAKNTVYLQMNSLKPEDTAVYYCAAYVPYSGLDYWGQGTQVTVSS | low polyreactivity |
| QVQLVESGGGLVQAGGSLRLSCAASGSIFESNAMGWYRQAPGKERELVAAYADSVKGRFTISRDNAKNTVYLQMNSLKPEDTAVYYCAKSLSLYVVPLYEYWGQGTQVTVSS | low polyreactivity |
| QVQLVESGGGLVQAGGSLRLSCAASGRNIRRYTMGLYIQAPGKEREFVAAITWSGSSTNYADSVKGRFTISRDNAKNTVYLQMNSLKPEDTAVYYCAAENRRRRDDYWGQGTQVTVSS | high polyreactivity |
